This assay addresses HIV-1 Env-pseudoviruses (neutralization panels). Kind of assay: cell-based or functional assay.

Some results are limits rather than exact numbers.

B1: VRC07 G54H heavy chain complemented with VRC01 light chain (antibody, V domains shown)
VH: QVRLSQSGGQMKKPGDSMRISCRASGYEFINCPINWIRLAPGKRPEWMGWMKPRHGAVSYARQLQGRVTMTRDMYSETAFLELRSLTSDDTAVYFCTRGKYCTARDYYNWDFEHWGQGTPVTVSS
VL: EIVLTQSPGTLSLSPGETAIISCRTSQYGSLAWYQQRPGQAPRLVIYSGSTRAAGIPDRFSGSRWGPDYNLTISNLESGDFGVYYCQQYEFFGQGTKVQVDI
The molecule B1 returned a fold improvement of neutralization over wild type VRC07 (IC50), six-virus panel, TZM-bl of 2.3 fold; a fold improvement of neutralization over wild type VRC07 (IC80), six-virus panel, TZM-bl of 2.5 fold; a fold increase of neutralization over VRC01 of 7 fold; a fold increase of neutralization over VRC07 of 2.5 fold. Moreover, the fold increase of neutralization potency compared to VRC07 heavy chain with VRC01 light chain was above 2 fold.

B2: VRC07 G54W heavy chain complemented with VRC01 light chain (antibody, V domains shown)
VH: QVRLSQSGGQMKKPGDSMRISCRASGYEFINCPINWIRLAPGKRPEWMGWMKPRWGAVSYARQLQGRVTMTRDMYSETAFLELRSLTSDDTAVYFCTRGKYCTARDYYNWDFEHWGQGTPVTVSS
VL: EIVLTQSPGTLSLSPGETAIISCRTSQYGSLAWYQQRPGQAPRLVIYSGSTRAAGIPDRFSGSRWGPDYNLTISNLESGDFGVYYCQQYEFFGQGTKVQVDI
B2 gave a fold increase of neutralization potency over VRC01 of 13 fold; a fold increase of neutralization potency over VRC07 of 4.8 fold; a neutralization potency relative to VRC07, panel of 7-12 HIVs above 2 fold; a neutralization potency relative to mature VRC01, panel of 7-12 HIVs above 8 fold.

Values taken from US20140322163A1.
